In article PMC4989220, “The role of Rab6a and phosphorylation of non-muscle myosin IIA tailpiece in alcohol-induced Golgi disorganization” (Scientific Reports, 2016):
Positions count from the first letter of the chain named.

B1: Rab6a GTPase (natural protein, UniProt P20340 1-208, looked up)
chain: MSTGGDFGNPLRKFKLVFLGEQSVGKTSLITRFMYDSFDNTYQATIGIDFLSKTMYLEDRTVRLQLWDTAGQERFRSLIPSYIRDSTVAVVVYDITNVNSFQQTTKWIDDVRTERGSDVIIMLVGNKTDLADKRQVSIEEGERKAKELNVMFIETSAKAGYNVKQLFRRVAAALPGMESTQDRSREDMIDIKLEKPQEQPVSEGGCSC
notes: Rab6a GTPase, endogenous in VA-13 cells (HepG2 cells expressing ADH); source: endogenous, VA-13 cells (lysate, Golgi fraction, fixed cells)
B2: Rab6a GTPase (rat hepatocytes) (natural protein, rat (endogenous in primary hepatocytes), UniProt Q9WVB1 1-208, looked up)
chain: B1 chain with T3A, S202N
notes: Rab6a, endogenous in hepatocytes of male Wistar rats; source: endogenous, primary rat hepatocytes (fixed cells, Golgi fraction)

Biological target: the molecule itself
Assay: Western blot of Golgi membrane fraction (dimer band); Rab6a Western blot of the Golgi fraction (sucrose gradient) from control VA-13 cells and hepatocytes from control rats

Row | Protein | stoichiometry N
1 | B1 | 2
2 | B2 | 2
